Reference: patent US20220119534A1 (DRAGONFLY THERAPEUTICS, published 2022)
Changes are numbered by the printed parent chain. Names and notes keep the numbering of the source.

How the values were obtained:
[1] = target: T1, Human CLEC12A-His (recombinant, K244 WT) (human, UniProt Q5QGZ9 65-265); assay: SPR, two-state fit (ka1); control sample
T1 construct: Made in house (Dragonfly Tx); also called hCLEC12A; hCLEC12A-His; not shown: His tag
T1 sequence: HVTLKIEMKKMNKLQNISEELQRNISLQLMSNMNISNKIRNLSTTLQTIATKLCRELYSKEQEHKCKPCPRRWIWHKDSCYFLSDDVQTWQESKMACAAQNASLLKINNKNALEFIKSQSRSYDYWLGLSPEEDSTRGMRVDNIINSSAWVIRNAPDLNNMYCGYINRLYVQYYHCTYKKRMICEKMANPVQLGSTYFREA

[2] = target: T2, Human CD16a V158 (FcγRIIIa V158) (human, UniProt P08637 17-208, biotinylated); assay: SPR; after pH 8, 40C, 2 wks
T2 construct: Bought recombinant receptor; also called hCD16aV; hFcγRIIIa V158

[3] = target: T3, Human CLEC12A expressed on cells (Ba/F3-hCLEC12A, PL21, HL60) (human, UniProt Q5QGZ9 1-265); assay: cell-based or functional assay
T3 sequence: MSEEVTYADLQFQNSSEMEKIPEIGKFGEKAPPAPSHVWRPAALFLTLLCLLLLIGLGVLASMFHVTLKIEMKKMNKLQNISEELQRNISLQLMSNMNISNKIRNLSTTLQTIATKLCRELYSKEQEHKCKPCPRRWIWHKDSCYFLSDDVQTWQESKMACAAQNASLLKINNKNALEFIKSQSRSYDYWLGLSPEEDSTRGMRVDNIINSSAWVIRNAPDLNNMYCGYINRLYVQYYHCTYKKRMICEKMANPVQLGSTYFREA

[4] = target: T4, mFc-hNKG2D (recombinant mFc-tagged human NKG2D dimer) (human, UniProt P26718 73-216); assay: SPR; control sample
T4 construct: extracellular domain; Made in house; not shown: mouse Fc tag
T4 sequence (looked up): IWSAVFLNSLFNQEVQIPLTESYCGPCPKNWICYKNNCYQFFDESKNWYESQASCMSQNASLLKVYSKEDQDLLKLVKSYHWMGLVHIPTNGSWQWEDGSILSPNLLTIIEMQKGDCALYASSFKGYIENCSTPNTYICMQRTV

[5] = target: T2, Human CD16a V158 (FcγRIIIa V158); assay: SPR; control sample
[6] = target: T1, Human CLEC12A-His (recombinant, K244 WT); assay: SPR, two-state fit (ka1); after low pH hold
[7] = target: T1, Human CLEC12A-His (recombinant, K244 WT); assay: SPR, two-state fit (kd1)
[8] = target: T5, Human CLEC12A-K244Q-His (human, UniProt Q5QGZ9 65-265); assay: SPR, two-state fit (kd1)
T5 construct: also called hCLEC12A (Q244); CLEC12A (Q244); not shown: His tag
T5 chain: T1 sequence with K180Q

[9] = target: T1, Human CLEC12A-His (recombinant, K244 WT); assay: SPR, two-state fit (ka1); control sample; remark: listed apart in the source

T2 sequence (P08637 17-208 F176V limits assumed): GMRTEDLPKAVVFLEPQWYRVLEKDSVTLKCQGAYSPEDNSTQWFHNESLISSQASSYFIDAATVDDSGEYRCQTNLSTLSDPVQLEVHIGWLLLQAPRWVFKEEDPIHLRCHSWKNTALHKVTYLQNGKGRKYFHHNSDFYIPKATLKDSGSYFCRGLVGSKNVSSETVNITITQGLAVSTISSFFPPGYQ

B1: AB0089 TriNKET (bispecific antibody, human IgG1, kappa)
chain: QLQLQESGPGLVKPSETLSLTCTVSGFSLTNYGLHWIRQPPGKCLEWIGVIWVGGATDYNPSLKSRVTISVDTSKNQFSLKLSSVQAADTAVYYCAKGDYGDTLDYWGQGTLVTVSSGGGGSGGGGSGGGGSGGGGSDIQMTQSPSSLSASVGDRVTITCHASQNINFWLSWYQQKPGKAPKLLIYEASNLHTGVPSRFSGSGSGTDFTLTISSLQPEDFATYYCQQSHSYPLTFGCGTKLEIKGSDKTHTCPPCPAPELLGGPSVFLFPPKPKDTLMISRTPEVTCVVVDVSHEDPEVKFNWYVDGVEVHNAKTKPREEQYNSTYRVVSVLTVLHQDWLNGKEYKCKVSNKALPAPIEKTISKAKGQPREPRVYTLPPCRDELTKNQVSLTCLVKGFYPSDIAVEWESNGQPENNYKTTPPVLVSDGSFTLYSKLTVDKSRWQQGNVFSCSVMHEALHNHYTQKSLSLSPG
heavy: EVQLVESGGGLVKPGGSLRLSCAASGFTFSSYSMNWVRQAPGKGLEWVSSISSSSSYIYYADSVKGRFTISRDNAKNSLYLQMNSLRAEDTAVYYCARGAPIGAAAGWFDPWGQGTLVTVSSASTKGPSVFPLAPSSKSTSGGTAALGCLVKDYFPEPVTVSWNSGALTSGVHTFPAVLQSSGLYSLSSVVTVPSSSLGTQTYICNVNHKPSNTKVDKKVEPKSCDKTHTCPPCPAPELLGGPSVFLFPPKPKDTLMISRTPEVTCVVVDVSHEDPEVKFNWYVDGVEVHNAKTKPREEQYNSTYRVVSVLTVLHQDWLNGKEYKCKVSNKALPAPIEKTISKAKGQPREPQVCTLPPSRDELTENQVSLTCLVKGFYPSDIAVEWESNGQPENNYKTTPPVLDSDGSFFLYSWLTVDKSRWQQGNVFSCSVMHEALHNHYTQKSLSLSPG
light: DIQMTQSPSSVSASVGDRVTITCRASQGISSWLAWYQQKPGKAPKLLIYAASSLQSGVPSRFSGSGSGTDFTLTISSLQPEDFATYYCQQGVSFPRTFGGGTKVEIKRTVAAPSVFIFPPSDEQLKSGTASVVCLLNNFYPREAKVQWKVDNALQSGNSQESVTEQDSKDSTYSLSSTLTLSKADYEKHKVYACEVTHQGLSSPVTKSFNRGEC
notes: F3' format heterodimer of three chains; human IgG1 Fc with EW-RVT and Y349C/S354C mutations; also called AB0089 Lot AB0089-002; CLEC12A TriNKET AB0089
- kon [1]: 8.87e+06 M⁻¹ s⁻¹
- Kd [2]: 350 nM
- koff [2]: 0.0279 s⁻¹
- kon [2]: 79400 M⁻¹ s⁻¹
- EC50, lysis of PL21 cells by NK cells, with sMIC-A-Fc [3]: 0.26 nM
- EC50, lysis of PL21 cells by NK cells, without sMIC-A-Fc [3]: 0.32 nM
- Kd [4]: 797 nM
- koff [4]: 0.135 s⁻¹
- kon [4]: 169000 M⁻¹ s⁻¹
- Kd [5]: 322 nM
- koff [5]: 0.0278 s⁻¹
- kon [5]: 86400 M⁻¹ s⁻¹
- kon [6]: 1.11e+07 M⁻¹ s⁻¹
- koff [7]: 0.0398 s⁻¹
- koff [8]: 0.00353 s⁻¹
- kon [9]: 8.87e+06 M⁻¹ s⁻¹
